Measurements from US20140087995A1 (published 2014).
Numbered stars: 1 amine (or outer) side, 2 acyl side, 3 side chain; on linkers, the order of the positions; unused ones are H or OH. Bridge positions count the residues as written; N and C are the ends. Side chains are listed from the residue outwards. Ends that are not written are not given here. * marks the point of attachment. C20 diacid = O=C(O)CCCCCCCCCCCCCCCCCCC(=O)*; γGlu = O=C(O)[C@H](CCC(=O)[*:2])N[*:1]; AEEA = NCCOCCOCC(=O)O

T1: human amylin receptor (amylin 3(a) receptor: human calcitonin receptor plus RAMP-3) (human, UniProt P30988 25-474; O60896 24-148, limits assumed)
T1 construct: whole, on cells; the functional assay (Assay IIa) used the whole cells; also called hAmylin-R; hAmylinR
T1 sequence (looked up) 1: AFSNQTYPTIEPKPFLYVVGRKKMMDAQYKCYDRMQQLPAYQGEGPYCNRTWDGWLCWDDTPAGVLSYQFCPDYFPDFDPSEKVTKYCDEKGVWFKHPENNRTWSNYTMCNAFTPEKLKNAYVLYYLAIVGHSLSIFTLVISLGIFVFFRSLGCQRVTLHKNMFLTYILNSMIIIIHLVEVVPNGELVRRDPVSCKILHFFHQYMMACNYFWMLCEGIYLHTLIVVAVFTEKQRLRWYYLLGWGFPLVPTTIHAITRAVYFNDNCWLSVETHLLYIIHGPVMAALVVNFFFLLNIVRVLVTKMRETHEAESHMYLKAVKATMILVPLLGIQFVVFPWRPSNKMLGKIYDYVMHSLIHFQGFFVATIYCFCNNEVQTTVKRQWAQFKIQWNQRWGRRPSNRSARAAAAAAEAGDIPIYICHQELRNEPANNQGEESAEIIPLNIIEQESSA
T1 sequence (looked up) 2: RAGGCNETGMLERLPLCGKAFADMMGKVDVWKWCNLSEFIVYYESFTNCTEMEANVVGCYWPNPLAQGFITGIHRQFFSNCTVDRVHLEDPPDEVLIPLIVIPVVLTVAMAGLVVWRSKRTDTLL

T2: human calcitonin receptor (human, UniProt P30988 25-474)
T2 sequence (looked up): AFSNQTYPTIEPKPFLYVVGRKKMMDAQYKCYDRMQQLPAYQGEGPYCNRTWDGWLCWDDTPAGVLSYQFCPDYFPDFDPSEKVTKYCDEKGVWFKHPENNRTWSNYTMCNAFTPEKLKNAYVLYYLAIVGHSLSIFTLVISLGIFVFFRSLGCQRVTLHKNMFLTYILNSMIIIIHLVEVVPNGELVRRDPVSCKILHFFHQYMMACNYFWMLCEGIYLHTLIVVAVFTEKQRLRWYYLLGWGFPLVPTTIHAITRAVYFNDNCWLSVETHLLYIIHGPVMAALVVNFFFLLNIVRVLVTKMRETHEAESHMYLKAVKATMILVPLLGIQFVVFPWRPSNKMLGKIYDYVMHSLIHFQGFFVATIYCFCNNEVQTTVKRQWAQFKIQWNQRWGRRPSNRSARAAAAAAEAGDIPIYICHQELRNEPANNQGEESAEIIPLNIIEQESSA

T3: human calcitonin receptor (human, UniProt P30988 25-474)
T3 construct: whole, on cells; Used as cell membranes prepared from the transfected BHK cells (Assay VII), not as intact cells; also called hCTR; hCT
T3 sequence (looked up): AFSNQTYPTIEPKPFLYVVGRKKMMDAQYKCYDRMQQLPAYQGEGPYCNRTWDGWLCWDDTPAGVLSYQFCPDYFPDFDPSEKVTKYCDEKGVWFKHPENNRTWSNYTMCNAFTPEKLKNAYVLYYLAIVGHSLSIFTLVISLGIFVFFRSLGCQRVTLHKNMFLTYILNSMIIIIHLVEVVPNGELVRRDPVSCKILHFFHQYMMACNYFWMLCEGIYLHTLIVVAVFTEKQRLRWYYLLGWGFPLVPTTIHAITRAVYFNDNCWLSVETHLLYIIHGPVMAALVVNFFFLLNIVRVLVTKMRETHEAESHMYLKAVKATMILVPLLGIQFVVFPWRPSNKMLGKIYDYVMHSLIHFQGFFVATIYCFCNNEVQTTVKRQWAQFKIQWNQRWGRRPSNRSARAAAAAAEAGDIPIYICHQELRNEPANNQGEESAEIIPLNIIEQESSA

T4: human amylin receptor (human calcitonin receptor co-expressed with RAMP-3; amylin 3(a) receptor) (human, UniProt P30988 25-474; O60896 24-148, limits assumed)
T4 construct: whole, on cells; Used as cell membranes prepared from Amylin 3(a)/CRE-luc BHK cells (Assay V), not as intact cells; also called hAmylin-R; hAmylinR
T4 sequence (looked up) 1: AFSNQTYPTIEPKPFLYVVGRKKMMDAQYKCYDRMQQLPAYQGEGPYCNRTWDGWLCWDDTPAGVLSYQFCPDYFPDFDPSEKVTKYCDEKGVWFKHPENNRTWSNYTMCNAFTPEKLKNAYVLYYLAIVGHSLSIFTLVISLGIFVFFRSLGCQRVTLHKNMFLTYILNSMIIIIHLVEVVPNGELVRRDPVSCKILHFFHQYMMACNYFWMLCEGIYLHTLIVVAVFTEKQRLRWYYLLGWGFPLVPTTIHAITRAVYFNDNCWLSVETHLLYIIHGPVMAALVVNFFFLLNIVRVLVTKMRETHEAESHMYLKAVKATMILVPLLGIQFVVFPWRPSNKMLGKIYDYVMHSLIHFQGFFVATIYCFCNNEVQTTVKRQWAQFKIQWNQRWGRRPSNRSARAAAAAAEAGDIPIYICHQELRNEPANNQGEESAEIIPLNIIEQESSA
T4 sequence (looked up) 2: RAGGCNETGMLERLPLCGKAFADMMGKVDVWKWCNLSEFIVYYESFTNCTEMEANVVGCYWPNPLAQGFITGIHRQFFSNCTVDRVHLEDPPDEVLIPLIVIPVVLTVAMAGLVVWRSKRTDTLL


Key:
[1] = molecular target: T1, human amylin receptor (amylin 3(a) …); assay: SPA competition binding, membranes of Amylin 3(a)/CRE-luc BHK cells, displacement of 125I-rat amylin (Assay V)
Procedure: The binding assay was performed using scintillation proximity assay (SPA) beads (RPNQ0001) from PerkinElmer and cell membranes from the Amylin 3(a)/CRE-luc cells (as described in Assay (II)) were used. Membranes were prepared in the following way; the cells were rinsed with PBS and incubated with Versene for approximately 5 min before harvesting. The cells were flushed with PBS and the cell-suspension was centrifuged for 5 min at 1000 rpm. Cells were homogenized (ultrathurrax) in a buffer containing 20 mM Na-HEPES and 10 mM EDTA (pH 7.4) and centrifuged at 20.000 rpm for 15 min. The resulting pellet was resuspended, homogenized and centrifuged (20.000 rpm, 15 min) in a buffer containing 20 mM Na-HEPES and 0.1 mM EDTA (pH 7.4, buffer 2). The resulting pellet was resuspended in buffer 2 and protein concentration was measured (BCA protein Assay, Pierce). The homogenate was kept cold during the whole procedure. The membranes were kept at −80° C. until use. The assay was performed in a 384 well Optiplate (PerkinElmer) in a total volume of 40 ul. Membranes were mixed with SPA beads. Final concentration of membranes 35 ng/μL final and SPA beads was 0.05 mg/well. Test-compounds were dissolved in DMSO and further diluted in assay buffer (50 mM Hepes, pH 7.4, 1 mM CaCl2, 5 mM MgCl₂, 0.1% OA and 0.02% Tween20). […] The final mixture was incubated with shaking at 400 rpm for 120 min at 25° C. prior to centrifugation (1500 rpm, 10 min). Samples were analyzed on TopCounter™ (Packard). The IC₅₀ was calculated using (one site binding competition analysis) GraphPad Prism5 as a measure of receptor affinity.

[2] = molecular target: T2, human calcitonin receptor; assay: cell-based or functional assay
[3] = molecular target: T1, human amylin receptor (amylin 3(a) …); assay: cell-based or functional assay
[4] = molecular target: T3, human calcitonin receptor; assay: SPA competition against 125I-calcitonin, membranes with human calcitonin receptor (Assay VII)
Procedure, shortened: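 BHK hCTR membranes 35 ng/μL + SPA beads 0.05 mg/well; buffer 50 mM Hepes pH 7.4, 1 mM CaCl2, 5 mM MgCl₂, 0.1% OA, 0.02% Tween20. 120 min, 25° C., shaking. Scintillation count; IC50 by one-site binding competition.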

[5] = molecular target: T4, human amylin receptor (human calcitonin …); assay: ratio of hCTR binding IC50 to hAmylin-R binding IC50 (reference: human calcitonin receptor)
Procedure, shortened: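 Membranes (35 ng/μL final) + SPA beads, 50 mM Hepes pH 7.4 buffer with 1 mM CaCl2, 5 mM MgCl₂, 0.1% OA, 0.02% Tween20; 120 min, 25° C, shaking; centrifuged, counted; IC₅₀ by one-site binding competition.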

Binder | IC50 [1] [nM] | Ratio hCT/hAmylin funct. (hCTR EC50 against hAmylin-R EC50) [2] | hCTR funct. EC50 [2] [nM] | hAmylin-R funct. EC50 [3] [nM] | IC50 [4] [nM] | Ratio hCT/hAmylin binding [5]
KCNTATCATQRLAEFLRHSSPNFGAIPSSTNVGSNTY (C20 diacid-gGlu on the alpha amino group of the N-terminal residue; Cys2-Cys7 disulfide and C-terminal amide as in human amylin, also called compound 9) [N^α1-[(4S)-4-carboxy-4-(19-carboxynonadecanoylamino)butanoyl]-[Glu14,Arg17,Pro21,Pro27]-h-amylin] | 0.143 | 7.4 | 1.29 | 0.175 |  | 
KCNTATCATQRLANFLRHSSPNFGAIPSSTNVGSNTY (C20 diacid-gGlu-2xOEG on the alpha amino group of the N-terminal residue; Cys2-Cys7 disulfide and C-terminal amide as in human amylin, also called compound 24) | 1.14 | 23.1 | 10 | 0.433 |  | 
KCNTATCATQRLANFLRHSSPNFGAIPSSTNVGSKTY (C20 diacid-gGlu on the alpha amino group of the N-terminal residue; Cys2-Cys7 disulfide and C-terminal amide as in human amylin, also called compound 34) [N^α1-[(4S)-4-carboxy-4-(19-carboxynonadecanoylamino)butanoyl]-[Arg17,Pro21,Pro27,Lys35]-h-amylin] | 1.14 | 8.4 | 2.62 | 0.313 |  | 
{C20 diacid-γGlu-AEEA-AEEA}-KCNTATCATQRLAEFLRHSSPNFGAIPSSTNVGSNTP-NH2 (disulfide 2-7; SMILES CC[C@H](C)[C@H](NC(=O)[C@H](C)NC(=O)CNC(=O)[C@H](Cc1ccccc1)NC(=O)[C@H](CC(N)=O)NC(=O)[C@@H]1CCCN1C(=O)[C@H](CO)NC(=O)[C@H](CO)NC(=O)[C@H](Cc1c[nH]cn1)NC(=O)[C@H](CCCNC(=N)N)NC(=O)[C@H](CC(C)C)NC(=O)[C@H](Cc1ccccc1)NC(=O)[C@H](CCC(=O)O)NC(=O)[C@H](C)NC(=O)[C@H](CC(C)C)NC(=O)[C@H](CCCNC(=N)N)NC(=O)[C@H](CCC(N)=O)NC(=O)[C@@H](NC(=O)[C@H](C)NC(=O)[C@@H]1CSSC[C@H](NC(=O)[C@H](CCCCN)NC(=O)COCCOCCNC(=O)COCCOCCNC(=O)CC[C@H](NC(=O)CCCCCCCCCCCCCCCCCCC(=O)O)C(=O)O)C(=O)N[C@@H](CC(N)=O)C(=O)N[C@@H]([C@@H](C)O)C(=O)N[C@@H](C)C(=O)N[C@@H]([C@@H](C)O)C(=O)N1)[C@@H](C)O)C(=O)N1CCC[C@H]1C(=O)N[C@@H](CO)C(=O)N[C@@H](CO)C(=O)N[C@H](C(=O)N[C@@H](CC(N)=O)C(=O)N[C@H](C(=O)NCC(=O)N[C@@H](CO)C(=O)N[C@@H](CC(N)=O)C(=O)N[C@H](C(=O)N1CCC[C@H]1C(N)=O)[C@@H](C)O)C(C)C)[C@@H](C)O, also called compound 20) | 0.217 | 3.6 | 0.285 | 0.08 |  | 
K([γGlu-C20 diacid])CNTATCATQRLAHFLRHSSPNFGAIPSSTPVGSNTY-NH2 (disulfide 2-7; N-terminus assumed; SMILES CC[C@H](C)[C@H](NC(=O)[C@H](C)NC(=O)CNC(=O)[C@H](Cc1ccccc1)NC(=O)[C@H](CC(N)=O)NC(=O)[C@@H]1CCCN1C(=O)[C@H](CO)NC(=O)[C@H](CO)NC(=O)[C@H](Cc1c[nH]cn1)NC(=O)[C@H](CCCNC(=N)N)NC(=O)[C@H](CC(C)C)NC(=O)[C@H](Cc1ccccc1)NC(=O)[C@H](Cc1c[nH]cn1)NC(=O)[C@H](C)NC(=O)[C@H](CC(C)C)NC(=O)[C@H](CCCNC(=N)N)NC(=O)[C@H](CCC(N)=O)NC(=O)[C@@H](NC(=O)[C@H](C)NC(=O)[C@@H]1CSSC[C@H](NC(=O)[C@@H](N)CCCCNC(=O)CC[C@H](NC(=O)CCCCCCCCCCCCCCCCCCC(=O)O)C(=O)O)C(=O)N[C@@H](CC(N)=O)C(=O)N[C@@H]([C@@H](C)O)C(=O)N[C@@H](C)C(=O)N[C@@H]([C@@H](C)O)C(=O)N1)[C@@H](C)O)C(=O)N1CCC[C@H]1C(=O)N[C@@H](CO)C(=O)N[C@@H](CO)C(=O)N[C@H](C(=O)N1CCC[C@H]1C(=O)N[C@H](C(=O)NCC(=O)N[C@@H](CO)C(=O)N[C@@H](CC(N)=O)C(=O)N[C@H](C(=O)N[C@@H](Cc1ccc(O)cc1)C(N)=O)[C@@H](C)O)C(C)C)[C@@H](C)O, also called compound 62) |  |  |  |  | 6.17 | 63
K([γGlu-C20 diacid])CNTATCATQRLAHFLRHSSPNFGAIPSSTNVGPNTY-NH2 (disulfide 2-7; N-terminus assumed; SMILES CC[C@H](C)[C@H](NC(=O)[C@H](C)NC(=O)CNC(=O)[C@H](Cc1ccccc1)NC(=O)[C@H](CC(N)=O)NC(=O)[C@@H]1CCCN1C(=O)[C@H](CO)NC(=O)[C@H](CO)NC(=O)[C@H](Cc1c[nH]cn1)NC(=O)[C@H](CCCNC(=N)N)NC(=O)[C@H](CC(C)C)NC(=O)[C@H](Cc1ccccc1)NC(=O)[C@H](Cc1c[nH]cn1)NC(=O)[C@H](C)NC(=O)[C@H](CC(C)C)NC(=O)[C@H](CCCNC(=N)N)NC(=O)[C@H](CCC(N)=O)NC(=O)[C@@H](NC(=O)[C@H](C)NC(=O)[C@@H]1CSSC[C@H](NC(=O)[C@@H](N)CCCCNC(=O)CC[C@H](NC(=O)CCCCCCCCCCCCCCCCCCC(=O)O)C(=O)O)C(=O)N[C@@H](CC(N)=O)C(=O)N[C@@H]([C@@H](C)O)C(=O)N[C@@H](C)C(=O)N[C@@H]([C@@H](C)O)C(=O)N1)[C@@H](C)O)C(=O)N1CCC[C@H]1C(=O)N[C@@H](CO)C(=O)N[C@@H](CO)C(=O)N[C@H](C(=O)N[C@@H](CC(N)=O)C(=O)N[C@H](C(=O)NCC(=O)N1CCC[C@H]1C(=O)N[C@@H](CC(N)=O)C(=O)N[C@H](C(=O)N[C@@H](Cc1ccc(O)cc1)C(N)=O)[C@@H](C)O)C(C)C)[C@@H](C)O, also called compound 67) |  |  |  |  | 4.63 | 51.6
